Experimental data reported in patent publication US20150203579A1 (Regeneron, published 2015).
Where a chain is given by its changes, count along the chain named. Names may count otherwise. Read-outs that look alike come from different tables or passages of the source. Values belong to the binder of their own block, whether it stands above or below them.

Tests used:
[1] = molecular target: T1, recombinant cynomolgus monkey PD-1 expressed with a C-terminal myc-myc-hexahistidine tag (cynomolgus monkey (Macaca fascicularis)); assay: SPR (Biacore), MfPD-1-MMH, 25 C; end of range tied to H4xH8999P by Table 8
T1 construct: Monomeric reagent; also called MfPD-1-MMH
T1 chain: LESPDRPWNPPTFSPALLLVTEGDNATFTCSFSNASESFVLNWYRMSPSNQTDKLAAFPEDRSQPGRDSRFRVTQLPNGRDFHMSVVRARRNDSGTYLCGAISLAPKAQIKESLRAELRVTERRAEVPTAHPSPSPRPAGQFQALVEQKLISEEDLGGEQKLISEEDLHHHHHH
Description: (§1) Binding association and dissociation rate constants (kₐ and kd, respectively), equilibrium dissociation constants and dissociation half-lives (KD and t_{1/2}, respectively) for antigen binding to purified anti-PD1 antibodies were determined using a real-time surface plasmon resonance biosensor assay on a Biacore 4000 or Biacore T200 instrument. […] Experiments were performed at 25° C. and 37° C. Kinetic association (kₐ) and dissociation (kd) rate constants were determined by processing and fitting the data to a 1:1 binding model using Scrubber 2.0c curve fitting software. Binding dissociation equilibrium constants (KD) and dissociative half-lives (t_{1/2}) were then calculated from the kinetic rate constants as: KD(M)=kd/kₐ and t_{1/2} (min)=[In2/(60*kd)].

[2] = molecular target: T2, recombinant human PD-1 expressed with a C-terminal myc-myc-hexahistidine tag (human); assay: SPR (Biacore), mAb captured, hPD-1-MMH injected, 25 C;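 note: rate constants obtained by fitting sensorgrams to a 1:1 binding model, KD derived as kd/ka and half-life as ln2/(60·kd) in minutes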
T2 construct: also called hPD-1-MMH; human PD-1-MMH
Description: as §1

[3] = molecular target: T3, PD-1 chimera: extracellular domain of human PD-1 with trans-membrane and cytoplasmic domains of human CD300a, … (human, UniProt Q9UGN4 181-299, limits assumed); assay: cell-based or functional assay
[4] = molecular target: T4, recombinant human PD-L1 expressed with a C-terminal mouse IgG2a Fc tag (human); assay: SPR Biacore 3000: 500 nM mAb alone (no hPD-1.hFc) over captured hPD-L1.mFc surface, control
T4 construct: also called hPD-L1-mFc; hPD-L1.mFc

[5] = molecular target: T5, full length human PD-1 on HEK293/hPD-1 cells (human, UniProt Q15116 25-288); assay: FACS dose response, HEK293/hPD-1 cells; EC50 Inconclusive
Description: (§2) For the assay, adherent cells were detached using trypsin and blocked with complete medium. Cells were centrifuged and resuspended at a concentration of 6×10̂6 cells/mL in staining buffer (1% FBS in PBS). To determine the EC₅₀ and Eₘₐₓ of the anti-PD1 antibodies, 90 uL of cell suspension was incubated for 30 minutes on ice with a serial dilution of anti-PD-1 antibodies and controls diluted to a final concentration ranging from 5 pM to 100 nM (no mAb sample was included as negative control) in staining buffer. Cells were then centrifuged and pellets were washed once with staining buffer to remove unbound antibodies. […] The following day, cells were centrifuged and pellets were washed once with staining buffer, resuspended and filtered. Fluorescence measurements were acquired on Hypercyt® cytometer and analyzed in ForeCyt™ (IntelliCyt; Albuquerque, N. Mex.) to determine the mean fluorescence intensities (MFI). The EC₅₀ values were calculated from a four-parameter logistic equation over an 11-point response curve using GraphPad Prism. Eₘₐₓ for each antibody was defined as the binding at the highest antibody dose (100 nM) tested.

[6] = molecular target: T6, recombinant human PD-1 expressed with a C-terminal human IgG1 Fc tag (human); assay: SPR Biacore 3000: 100 nM hPD-1.hFc + 500 nM mAb to captured hPD-L1.mFc;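 note: inhibition study with anti-PD-1 mAbs, SPR responses tracked in real time and read at the close of each step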
T6 construct: also called hPD-1-hFc; hPD1-hFc
Description: Next, inhibition studies for anti-PD-1 monoclonal antibodies expressed with human Fc were performed on a Biacore 3000 instrument. […] The real-time binding responses were monitored during the entire course of the experiment and the binding response at the end of every step was recorded.

[7] = molecular target: T7, recombinant human PD-1 dimer expressed with a C-terminal mouse IgG2a Fc tag (human); assay: competition ELISA: 100 pM hPD-1-mFc to coated hPD-L2-hFc
T7 construct: also called hPD-1-mFc
Description: (§3) Data analysis was performed using a sigmoidal dose-response model within Prism™ software (GraphPad). […] Percent maximum blockade was calculated as a measure of the ability of the antibodies to completely block binding of human PD-1 to human PD-L1 or PD-L2 on the plate as determined from the dose curve.

[8] = molecular target: T8, monkey PD-1 with mFc (monkey); assay: SPR, captured mAb, 37 C;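 note: Real-time Biacore surface plasmon resonance biosensor readout of PD-1 reagent binding to purified anti-PD-1 monoclonal antibodies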
T8 construct: also called monkey PD-1-mFc; monkey PD-1 dimer
T8 chain: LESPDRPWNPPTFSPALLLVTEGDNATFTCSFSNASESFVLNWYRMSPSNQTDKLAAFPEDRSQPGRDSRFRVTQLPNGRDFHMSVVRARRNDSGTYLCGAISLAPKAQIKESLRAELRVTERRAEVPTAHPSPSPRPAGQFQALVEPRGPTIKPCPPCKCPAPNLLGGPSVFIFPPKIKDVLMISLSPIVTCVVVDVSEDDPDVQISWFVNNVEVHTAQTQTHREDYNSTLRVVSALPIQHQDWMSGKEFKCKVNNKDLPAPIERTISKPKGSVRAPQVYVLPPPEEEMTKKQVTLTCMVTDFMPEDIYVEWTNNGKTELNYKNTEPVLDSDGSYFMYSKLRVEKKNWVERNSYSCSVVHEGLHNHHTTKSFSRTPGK
Description: as §1

[9] = molecular target: T8, monkey PD-1 with mFc; assay: SPR, captured mAb, 37 C; no dissociation observed, kd fixed at 1.00E-05;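 for 100 nM Monkey PD-1-mFc Bound (RU): Real-time Biacore surface plasmon resonance biosensor readout of PD-1 reagent binding to purified anti-PD-1 monoclonal antibodies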;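 for koff: Real-time Biacore surface plasmon resonance biosensor readout of PD-1 reagent binding to purified anti-PD-1 monoclonal antibodies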;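 for kon: Real-time Biacore surface plasmon resonance biosensor readout of PD-1 reagent binding to purified anti-PD-1 monoclonal antibodies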
Description: as §1

[10] = molecular target: T8, monkey PD-1 with mFc; assay: SPR, captured mAb, 25 C;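 note: purified anti-PD-1 antibodies tested on Biacore 4000 or T200 instruments, rate constants obtained via 1:1 binding model fit, with KD as kd/ka and half-life as ln2/(60·kd)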
Description: as §1

[11] = molecular target: T5, full length human PD-1 on HEK293/hPD-1 …; assay: FACS, 100 nM mAb, HEK293/hPD-1 cells;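 note: antibodies incubated with cells for 15-30 min on ice, bound antibody detected through a secondary F(ab′)2 by flow cytometry, with parental HEK293 cells tested in parallel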
Description: (§4) For the assay, adherent cells were detached using trypsin or enzyme-free dissociation buffer and blocked with complete medium. Cells were centrifuged and resuspended at a concentration of 2.5-6×10̂6 cells/mL in cold PBS containing 2% FBS. HEK293 parental and HEK293/hPD-1 cells were then incubated for 15-30min on ice with 100 nM of each anti-PD-1 antibody. […] Cells were washed with D-PBS containing 2% FBS to remove unbound secondary F(ab′)2 and fluorescence measurements were acquired using either a HyperCyte (IntelliCyt, Inc.) flow cytometer or an Accuri flow cytometer (BD Biosciences). Data was analyzed using FlowJo software (Tree Star).

[12] = molecular target: T7, recombinant human PD-1 dimer expressed …; assay: competition ELISA: 1.5 nM hPD-1-mFc to coated hPD-L1-hFc
Description: as §3

[13] = molecular target: T9, monkey PD-1 with mFc (monkey (MfPD-1)); assay: SPR (Biacore), monkey PD-1-mFc, 37 C; end of range tied to H4xH9008P by Table 11 (kd fixed at 1.00E-05)
T9 construct: also called monkey PD-1-mFc; monkey PD-1 dimer
T9 chain: T8 chain
Description: as §1

[14] = molecular target: T3, PD-1 chimera: extracellular domain of …; assay: cell-based or functional assay; remark: listed apart in the source
[15] = molecular target: T5, full length human PD-1 on HEK293/hPD-1 …; assay: FACS dose response, HEK293/hPD-1 cells; No EC50 determined
Description: as §2

[16] = molecular target: T5, full length human PD-1 on HEK293/hPD-1 …; assay: FACS, 100 nM mAb
Description: as §4

[17] = molecular target: T7, recombinant human PD-1 dimer expressed …; assay: BLI Octet: 100 nM hPD-1-mFc + 500 nM mAb to captured hPD-L1-hFc
Target sequence in this assay (chain, as listed by the source limits assumed): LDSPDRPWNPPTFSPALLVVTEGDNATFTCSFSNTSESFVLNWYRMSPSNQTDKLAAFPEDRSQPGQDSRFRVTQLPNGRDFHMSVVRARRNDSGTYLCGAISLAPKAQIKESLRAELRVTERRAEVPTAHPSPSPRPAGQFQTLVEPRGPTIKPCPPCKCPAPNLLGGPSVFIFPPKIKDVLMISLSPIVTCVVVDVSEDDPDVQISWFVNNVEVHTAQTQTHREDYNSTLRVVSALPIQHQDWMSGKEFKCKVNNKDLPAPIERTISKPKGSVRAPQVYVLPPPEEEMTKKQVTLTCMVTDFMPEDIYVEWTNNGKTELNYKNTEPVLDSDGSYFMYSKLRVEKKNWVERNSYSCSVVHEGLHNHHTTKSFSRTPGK
Description: Inhibition studies for anti-PD-1 monoclonal antibodies expressed with a mouse Fc were performed on an Octet Red 96 instrument. […] The biosensors were washed in Octet HBST buffer in between each step of the experiment. The real-time binding responses were monitored during the entire course of the experiment and the binding response at the end of every step was recorded.

[18] = molecular target: T1, recombinant cynomolgus monkey PD-1 …; assay: SPR (Biacore), MfPD-1-MMH, 25 C; end of range tied to H4H9057P2 by Table 8
Description: as §1

[19] = molecular target: T10, recombinant human PD-1 dimer expressed with a C-terminal mouse IgG2a Fc tag (human); assay: competition ELISA: blocking 1.5 nM hPD-1-mFc binding to coated hPD-L1-hFc; end tied to H4H9057P2 by Table 12 (below theoretical bottom 0.75 nM)
T10 construct: also called hPD-1-mFc; human PD-1-mFc
Description: as §3

[20] = molecular target: T9, monkey PD-1 with mFc; assay: SPR (Biacore), monkey PD-1-mFc, 25 C; end of range tied to H4H9068P2 by Table 10
Description: as §1

[21] = molecular target: T9, monkey PD-1 with mFc; assay: SPR (Biacore), monkey PD-1-mFc, 37 C; end of range tied to H4H9068P2 by Table 11
Description: as §1

[22] = molecular target: T1, recombinant cynomolgus monkey PD-1 …; assay: SPR (Biacore), MfPD-1-MMH, 37 C; end of range tied to H4xH9045P by Table 9
Description: as §1

T6 sequence (chain, as listed by the source limits assumed): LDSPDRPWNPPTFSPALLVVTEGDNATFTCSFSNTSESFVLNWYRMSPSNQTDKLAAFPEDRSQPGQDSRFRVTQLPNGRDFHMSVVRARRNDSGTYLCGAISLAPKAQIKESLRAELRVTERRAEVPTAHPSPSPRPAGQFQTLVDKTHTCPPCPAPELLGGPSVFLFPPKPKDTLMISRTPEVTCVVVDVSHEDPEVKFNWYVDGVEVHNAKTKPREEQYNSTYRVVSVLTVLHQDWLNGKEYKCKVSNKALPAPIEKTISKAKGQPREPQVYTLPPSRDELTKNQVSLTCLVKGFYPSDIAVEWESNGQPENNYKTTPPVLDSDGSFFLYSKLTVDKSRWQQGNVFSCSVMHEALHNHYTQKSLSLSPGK
T5 sequence (Q15116 25-288 limits assumed): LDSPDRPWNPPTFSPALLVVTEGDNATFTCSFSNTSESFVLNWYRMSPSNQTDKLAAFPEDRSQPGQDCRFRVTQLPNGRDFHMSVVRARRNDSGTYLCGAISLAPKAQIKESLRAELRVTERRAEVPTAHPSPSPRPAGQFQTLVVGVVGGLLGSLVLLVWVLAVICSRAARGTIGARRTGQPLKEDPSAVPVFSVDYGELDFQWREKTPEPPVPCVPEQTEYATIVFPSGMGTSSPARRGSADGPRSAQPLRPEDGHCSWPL
T3 sequence (Q9UGN4 other isoform, or with tags, fused parts or gaps mutant limits assumed, form in doubt): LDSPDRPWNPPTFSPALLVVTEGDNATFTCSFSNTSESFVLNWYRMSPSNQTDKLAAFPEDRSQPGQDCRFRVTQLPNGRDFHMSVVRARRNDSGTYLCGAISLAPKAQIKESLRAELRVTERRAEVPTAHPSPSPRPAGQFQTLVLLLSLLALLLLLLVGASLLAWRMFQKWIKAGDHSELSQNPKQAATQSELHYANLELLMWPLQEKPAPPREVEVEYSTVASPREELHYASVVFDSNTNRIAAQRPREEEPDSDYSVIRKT

B1: H4xH8999P (antibody, human IgG4, V domains shown)
VH: QLQLQESGPGLVQPSETLSLTCTVSGDSISSTAYHWDWIRQPPGKGLEWIGTITYNGNTYFNPSLKSRVTISVDTSKNQFSLKLLSMTAAETAVFYCARHLGYNSDFFPFDFWGQGTLVTVSS
VL: not shown
notes: H4xH: modified human IgG4 Fc
Kd [1]: 3.09 nM
Kd [2]: 4.33 nM
t½ [2]: 9.4 min

B3: H4xH9008P (antibody, V domains shown)
VH: EVQLVESGGGLVRPGGSLRLSCAASGFTFSTYAMAWVRQTPGKGLEGVSAIGGSGDSTYYVDSVKGRFTISRDNSKSTLFLQMNSLRAEDTAVYYCVKVRNYDGSFDIWGQGTMVTVSS
VL: not shown
notes: human IgG4 Fc with 2 or more amino acid changes (US20100331527)
% blocking at 100 nM antibody [7]: 94%
100 nM Monkey PD-1-mFc Bound (RU) [8]: 98 RU
500 nM of anti-PD-1 monoclonal antibody (RU) [4]: 0 RU
Kd [9]: ≤ 0.049 nM
t1/2 [9]: ≥ 1160 min
binding of the mixture (RU) [6]: 1 RU
Kd [10]: 0.48 nM
t1/2 [10]: 200 min
MFI [11]: 26200 MFI
% blocking at 200 nM antibody [12]: 88%
IC50 [12]: 2.4 nM

B5: H2aM7795N (antibody, V domains shown)
VH: EVQVVESGGGLVEPGRSLRLSCKASGFTFDDYAMHWVRQTPGKALEWVSGINWSGNNIGYADSVKGRFTISKDDAKNSLYLQMNSLRPEDTALYYCTKDISITGTLDAFDVWGQGTMVTVSS
VL: DIQMTQSPISVSASVGDRVTITCRASQGISNWLAWYQQKPGIAPKLLIYSASSLQSGVPSRFRGSGSGTDFTLTIGSLQPEDFATYYCQQAHSFPLTFGGGTKVEIK
notes: human variable regions, mouse IgG2a Fc; also called H2M7795N
Emax mean [%] @ 100 nM [14]: 109%
Max Geom. Mean MFI @ 100 nM [15]: 624 MFI
ratio of MFI HEK293/hPD-1 to HEK293 parental cells [16]: 2.8
MFI [11]: 817 MFI
% Blocking [17]: 114%
binding of the mixture (nm) [17]: -0.01 nm

B9: H4H9068P2 (antibody, human IgG4, V domains shown)
VH: EVQLVESGGGLVQRGGSLRLSCAASGFSFSSYAMNWVRQAPGKGLEWVSTISDSGGSTYYADSVKGRFTISRDNSKNTLSLQMNSLRAEDTAVYYCAKDQGGSYPYYFHYWGQGTLVTVSS
VL: not shown
notes: Human IgG4 Fc (H4H prefix)
Kd [20]: 54.2 nM
Kd [21]: 86.3 nM

Second part, the binder after the results:

Emax mean [%] @ 100 nM [3]: 150%
500 nM of anti-PD-1 monoclonal antibody (RU) [4]: -7 RU
Max Geom. Mean MFI @ 100 nM [5]: 32200 MFI
% Blocking [6]: 107%
binding of the mixture (RU) [6]: -7 RU
B2: H4H9008P (antibody, human IgG4 S228P, kappa, V domains shown)
VH: B3 VH
VL: not shown
notes: human IgG4 Fc

Kd [13]: < 0.049 nM
Kd [2]: 31 nM
t½ [2]: 8.7 min
B4: H4xH9008P (antibody, human IgG4, V domains shown)
VH: B3 VH
VL: not shown
notes: H4xH: modified human IgG4 Fc

Emax mean [%] @ 100 nM [3]: 110%
100 nM Monkey PD-1-mFc Bound (RU) [8]: 47 RU
Kd [8]: 1.71 nM
koff [8]: 0.00029 s⁻¹
kon [8]: 170000 M⁻¹ s⁻¹
t1/2 [8]: 40 min
500 nM of anti-PD-1 monoclonal antibody (RU) [4]: -5 RU
Max Geom. Mean MFI @ 100 nM [5]: 15200 MFI
% Blocking [6]: 106%
binding of the mixture (RU) [6]: -6 RU
100 nM Monkey PD-1-mFc Bound (RU) [10]: 60 RU
Kd [10]: 0.621 nM
koff [10]: 9.92e-05 s⁻¹
kon [10]: 160000 M⁻¹ s⁻¹
t1/2 [10]: 116 min
B6: H4H7795N2 (antibody, human IgG4 S228P, kappa, V domains shown)
VH: B5 VH with N52S
VL: DIQMTQSPISVSASVGDRVTITCRASQGISNWLAWYQQKPGIAPKLLIYSASSLQSGVPSRFRGSGSGTDFTLTIGSLQPEDFATYYCQQAHSFPLTFGGGTKVEIKR
notes: human IgG4 Fc

Kd [18]: 551 nM
IC50 [19]: 0.19 nM
Kd [2]: 291 nM
koff [2]: 0.0134 s⁻¹
kon [2]: 46000 M⁻¹ s⁻¹
t½ [2]: 0.9 min
B7: H4H9057P2 (antibody, human IgG4, V domains shown)
VH: EVQLVESGGGLVQSGRSLRLSCAASGFTFDDYAMHWVRQPPGKGLEWVSGINWNRGRTGYADSVKGRFTISRDNAKNSLYLQMNDLRVEDTALYYCAKAEQWLDEGYFDYWGQGTLVTVSS
VL: not shown
notes: Human IgG4 Fc (H4H prefix)

Emax mean [%] @ 100 nM [14]: 102%
100 nM Monkey PD-1-mFc Bound (RU) [8]: 6 RU
Kd [8]: 86.3 nM
koff [8]: 0.0105 s⁻¹
kon [8]: 121000 M⁻¹ s⁻¹
t1/2 [8]: 1.1 min
500 nM of anti-PD-1 monoclonal antibody (RU) [4]: -2 RU
Max Geom. Mean MFI @ 100 nM [15]: 639 MFI
ratio of MFI HEK293/hPD-1 to HEK293 parental cells [16]: 6.8
100 nM Monkey PD-1-mFc Bound (RU) [10]: 17 RU
Kd [10]: 54.2 nM
koff [10]: 0.00309 s⁻¹
kon [10]: 57000 M⁻¹ s⁻¹
t1/2 [10]: 4 min
MFI [11]: 1940 MFI
B8: H4H9068P2 (antibody, V domains shown)
VH: B9 VH
VL: not shown
notes: fully human; H4H prefix (human IgG4 Fc)

Emax mean [%] @ 100 nM [14]: 135%
Max Geom. Mean MFI @ 100 nM [5]: 35600 MFI
ratio of MFI HEK293/hPD-1 to HEK293 parental cells [16]: 92.3
MFI [11]: 24200 MFI
% Blocking [17]: 29%
binding of the mixture (nm) [17]: 0.05 nm
B10: H1M7789N (antibody, V domains shown)
VH: EVQLLESGGGLVQPGGSLRLSCSASGFTFSSYTMNWVRQAPGKGLEWVSGISDTGGNTYYTDSVKGRFTVSRDNSKNTLSLQMNSLRAEDTAVYYCAKDQGGSYPYYFHYWGQGSLVTVSS
VL: DIQMTQSPSSLSASVGDRVTITCRASQSISSYLIWYQQKPGTAPKFLIYAASSLQSGVPSRFSGCGSGTDFTLTISSLQPEDFATYYCQQSYSTPPITFGQGTRLEIK
notes: human variable regions, mouse IgG1 Fc

Kd [22]: 7540 nM
Kd [2]: 74.6 nM
koff [2]: 0.00403 s⁻¹
kon [2]: 54000 M⁻¹ s⁻¹
t½ [2]: 2.9 min
B11: H4xH9045P (antibody, human IgG4, V domains shown)
VH: EVQLVESGGGLVQPGRSLRLSCAASGFTFDDYDMHWVRQAPGKGLEWVSGSGWNRGSLGYADSVKGRFTISRDNAKKSLYLQMNSVRVEDTALYYCAKGFVVVSAAYFDYWGQGTLVTVSS
VL: not shown
notes: H4xH: modified human IgG4 Fc; also called H4xH9045P2
